B1: FIXa R318Y/R338E/R403E/E410N/T412V (protein)
chain 1: not shown
chain 2: not shown
B2: FIXa-D203N/F205T/E410N (protein)
chain 1: not shown
chain 2: not shown
B3: FIXa-Y155F/R338E/R403E/E410N (protein)
chain 1: not shown
chain 2: not shown
B4: FIXa K228N/K247N/N249S/R318Y/R338E/R403E/E410N (protein)
chain 1: not shown
chain 2: not shown
B5: FIXa R318Y/R338E/T412A (protein)
chain 1: not shown
chain 2: not shown
B6: FIXa-D203N/F205T/K228N (protein)
chain 1: not shown
chain 2: not shown
B7: FIXa-R338E/R403E/E410N (protein)
chain 1: not shown
chain 2: not shown
B8: FIXa R318Y/R338E/R403E/E410N/T412A (protein)
chain 1: not shown
chain 2: not shown
B9: FIXa-Y155F/R318Y/R338E/R403E (protein)
chain 1: not shown
chain 2: not shown
B10: FIXa R318Y/R338E/E410N/T412V (protein)
chain 1: not shown
chain 2: not shown

molecular target: Factor X (FX), P00742
Sequence (P00742 whole entry, looked up): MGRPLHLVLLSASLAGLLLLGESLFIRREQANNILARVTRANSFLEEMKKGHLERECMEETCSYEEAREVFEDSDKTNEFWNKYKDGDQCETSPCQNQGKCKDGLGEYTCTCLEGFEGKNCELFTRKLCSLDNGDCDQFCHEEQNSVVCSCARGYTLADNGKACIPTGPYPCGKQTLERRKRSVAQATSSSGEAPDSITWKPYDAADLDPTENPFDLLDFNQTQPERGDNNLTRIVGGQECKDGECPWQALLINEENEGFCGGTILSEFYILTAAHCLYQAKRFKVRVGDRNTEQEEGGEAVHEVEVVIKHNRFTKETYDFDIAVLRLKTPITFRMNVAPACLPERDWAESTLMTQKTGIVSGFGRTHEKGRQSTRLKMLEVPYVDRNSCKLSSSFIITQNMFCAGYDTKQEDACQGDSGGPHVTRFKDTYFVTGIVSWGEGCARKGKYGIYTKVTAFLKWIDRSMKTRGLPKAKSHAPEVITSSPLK

Question: With B1 as the protein, how does the kcat (Catalytic activity of FIXa variants) read?
Answer: Its kcat (Catalytic activity of FIXa variants) is 7.9 s⁻¹.

Question: B2 was tested. Which KM did it give?
Answer: The KM was 0.0455 µM.

Question: And the KM for FX activation by FIXa in the Xase complex (FVIIIa/PC-PS/Ca2+), fluorogenic Spectrafluor FXa assay?
Answer: The KM for FX activation by FIXa in the Xase complex (FVIIIa/PC-PS/Ca2+), fluorogenic Spectrafluor FXa assay was 0.0455 µM.

Question: What about the kcat of the same protein?
Answer: The kcat was 1.7 s⁻¹.

Question: With B3 as the protein, how does the kcat read?
Answer: Its kcat is 5.9 s⁻¹.

Question: B4 was tested. Which kcat (Catalytic activity of FIXa variants) did it give?
Answer: The kcat (Catalytic activity of FIXa variants) was 6.1 s⁻¹.

Question: B5 was tested. Which kcat (Catalytic activity of FIXa variants) did it give?
Answer: Its kcat (Catalytic activity of FIXa variants) is 7 s⁻¹.

Question: Which KM does the source give for B6 here?
Answer: The KM was 0.0399 µM.

Question: What about the KM for FX activation by FIXa in the Xase complex (FVIIIa/PC-PS/Ca2+), fluorogenic Spectrafluor FXa assay of the same protein?
Answer: The KM for FX activation by FIXa in the Xase complex (FVIIIa/PC-PS/Ca2+), fluorogenic Spectrafluor FXa assay was 0.0399 µM.

Question: What about the kcat of the same protein?
Answer: Its kcat is 0.6 s⁻¹.

Question: B7 was tested. Which KM did it give?
Answer: Its KM is 0.0367 µM.

Question: And the KM for FX activation by FIXa in the Xase complex (FVIIIa/PC-PS/Ca2+), fluorogenic Spectrafluor FXa assay?
Answer: Its KM for FX activation by FIXa in the Xase complex (FVIIIa/PC-PS/Ca2+), fluorogenic Spectrafluor FXa assay is 0.0455 µM.

Question: What about the kcat of the same protein?
Answer: The kcat was 5.8 s⁻¹.

Question: Which kcat (Catalytic activity of FIXa variants) does the source give for B8 here?
Answer: Its kcat (Catalytic activity of FIXa variants) is 8.4 s⁻¹.

Question: Which results are given for B9?
Answer: KM: 0.0671 µM; kcat: 5.1 s⁻¹

Question: For B10, which kcat (Catalytic activity of FIXa variants) is on record?
Answer: Its kcat (Catalytic activity of FIXa variants) is 6.3 s⁻¹.

Reference: patent publication US11491212
